Tests used:
[1] = molecular target: MspA-((Del-F80/S81/G112/V13)D56N/E59R/G75S/G77S/L88N/D90N/D91N/D118R/Q126R/D134R/E139K)8
[2] = molecular target: MspA-((Del-G75N76/A117/D118)D56N/E59R/G77S/L88N/D90N/D91N/Q126R/D134R/E139K)8
[3] = molecular target: MspA-((Del-L74/G75/D118/L119)D56N/E59F/L88N/D90N/D91N/Q126R/D134R/E139K)8
[4] = molecular target: MspA-((Del-L74/G75/D118/L119)D56N/E59Q/L88N/D90N/D91N/Q126R/D134R/E139K)8
[5] = molecular target: MspA-((Del-L74/G75/D118/L119)D56N/E59R/L88N/D90N/D91N/Q126R/D134N/E139K)8
[6] = molecular target: MspA-((Del-L74/G75/D118/L119)D56N/E59R/L88N/D90N/D91N/Q126R/D134R/E139K)8
[7] = molecular target: MspA-((Del-L74/G75/D118/L119)D56N/E59S/L88N/D90N/D91N/Q126R/D134R/E139K)8
[8] = molecular target: MspA-((Del-L74/G75/D118/L119)D56N/E59T/L88N/D90N/D91N/Q126R/D134R/E139K)8
[9] = molecular target: MspA-((Del-L74/G75/D118/L119)D56N/E59W/L88N/D90N/D91N/Q126R/D134R/E139K)8
[10] = molecular target: MspA-((Del-L74/G75/D118/L119)D56Y/E59R/L88N/D90N/D91N/Q126R/D134R/E139K)8
[11] = molecular target: MspA-((Del-L74/G75/D118/L119)E57R/E59N/L88N/D90N/D91N/Q126R/D134R/E139K)8
[12] = molecular target: MspA-((Del-L74/G75/D118/L119)G1A/D56N/E59F/L88N/D90N/D91N/Q126R/D134R/E139K)8

B1: T4 Dda-E94C/C109A/C136A/A360C (SEQ ID NO: 24 with mutations E94C/C109A/C136A/A360C) (protein)
chain: MTFDDLTEGQKNAFNIVMKAIKEKKHHVTINGPAGTGKTTLTKFIIEALISTGETGIILAAPTHAAKKILSKLSGKEASTIHSILKINPVTYECNVLFEQKEVPDLAKARVLICDEVSMYDRKLFKILLSTIPPWATIIGIGDNKQIRPVDPGENTAYISPFFTHKDFYQCELTEVKRSNAPIIDVATDVRNGKWIYDKVVDGHGVRGFTGDTALRDFMVNYFSIVKSLDDLFENRVMAFTNKSVDKLNSIIRKKIFETDKDFIVGEIIVMQEPLFKTYKIDGKPVSEIIFNNGQLVRIIEAEYTSTFVKARGVPGEYLIRHWDLTVETYGDDEYYREKIKIISSDEELYKFNLFLGKTCETYKNWNKGGKAPWSDFWDAKSQFSKVKALPASTFHKAQGMSVDRAFIYTPCIHYADVELAQQLLYVGVTRGRYDVFYV
For B1, the Average Signal to Noise (S2N) [1] was 13, the Mean Current Range [1] was 17.1 pA and the Mean Noise of the Signal [1] was 1.32. It also gave a Median Current Range [1] of 17.1 pA, a Median Noise of the Signal [1] of 1.22 and a Standard Deviation of the Current Range [1] of 2.11 pA. It also gave a Standard Deviation of the Noise of the Signal [1] of 0.32, an Average Signal to Noise (S2N) [2] of 12.5 and a Mean Current Range [2] of 15.8 pA. For the same protein, the Mean Noise of the Signal [2] was 1.27, the Median Current Range [2] was 15.8 pA and the Median Noise of the Signal [2] was 1.21. For the same protein, the Standard Deviation of the Current Range [2] was 1.69 pA, the Standard Deviation of the Noise of the Signal [2] was 0.24 and the Average Signal to Noise (S2N) [3] was 12.8. The Mean Current Range [3] was 15.8 pA, the Mean Noise of the Signal [3] was 1.24 and the Median Current Range [3] was 15.7 pA. For the same protein, the Median Noise of the Signal [3] was 1.17, the Median S2N [3] was 12.8 and the Percentage of complement slipping forwards [3] was 0.25%. For the same protein, the Standard Deviation of S2N [3] was 0.12, the Standard Deviation of the Current Range [3] was 1.86 pA and the Standard Deviation of the Noise of the Signal [3] was 0.27. For the same protein, the Average Signal to Noise (S2N) [4] was 12.8, the Mean Current Range [4] was 15.6 pA and the Mean Noise of the Signal [4] was 1.22. It also gave a Median Current Range [4] of 15.5 pA, a Median Noise of the Signal [4] of 1.16 and a Median S2N [4] of 13.3. For the same protein, the Percentage of complement slipping forwards [4] was 0.55%, the Standard Deviation of S2N [4] was 0.86 and the Standard Deviation of the Current Range [4] was 1.72 pA. For the same protein, the Standard Deviation of the Noise of the Signal [4] was 0.25, the Average Signal to Noise (S2N) [5] was 12.2 and the Mean Current Range [5] was 16 pA. The Mean Noise of the Signal [5] was 1.31, the Median Current Range [5] was 16.1 pA and the Median Noise of the Signal [5] was 1.27. It also gave a Median S2N [5] of 12, a Percentage of complement slipping forwards [5] of 0.65% and a Standard Deviation of S2N [5] of 0.57. For the same protein, the Standard Deviation of the Current Range [5] was 1.93 pA, the Standard Deviation of the Noise of the Signal [5] was 0.21 and the Average Signal to Noise (S2N) [6] was 12.5. It also gave a Mean Current Range [6] of 15.3 pA, a Mean Noise of the Signal [6] of 1.22 and a Median Current Range [6] of 15.3 pA. The Median Noise of the Signal [6] was 1.17, the Percentage of complement slipping forwards [6] was 0.49% and the Standard Deviation of the Current Range [6] was 1.66 pA. The Standard Deviation of the Noise of the Signal [6] was 0.2, the “slips forward per kilobase” value [6] was “less than 5 slips forward per kilobase” and the Average Signal to Noise (S2N) [7] was 11.4. The Mean Current Range [7] was 15 pA, the Mean Noise of the Signal [7] was 1.31 and the Median Current Range [7] was 14.9 pA. The Median Noise of the Signal [7] was 1.27, the Median S2N [7] was 11.3 and the Percentage of complement slipping forwards [7] was 0.43%. It also gave a Standard Deviation of S2N [7] of 0.29, a Standard Deviation of the Current Range [7] of 1.7 and a Standard Deviation of the Noise of the Signal [7] of 0.23. The Average Signal to Noise (S2N) [8] was 12.3, the Mean Current Range [8] was 16 pA and the Mean Noise of the Signal [8] was 1.31. The Median Current Range [8] was 16.1 pA, the Median Noise of the Signal [8] was 1.26 and the Median S2N [8] was 12.6. It also gave a Percentage of complement slipping forwards [8] of 0.8%, a Standard Deviation of S2N [8] of 0.87 and a Standard Deviation of the Current Range [8] of 1.87 pA. The Standard Deviation of the Noise of the Signal [8] was 0.24, the Average Signal to Noise (S2N) [9] was 11 and the Mean Current Range [9] was 15.2 pA. For the same protein, the Mean Noise of the Signal [9] was 1.38, the Median Current Range [9] was 15.1 pA and the Median Noise of the Signal [9] was 1.32. It also gave a Standard Deviation of the Current Range [9] of 1.85, a Standard Deviation of the Noise of the Signal [9] of 0.26 and an Average Signal to Noise (S2N) [10] of 12.9. For the same protein, the Mean Current Range [10] was 15.9 pA, the Mean Noise of the Signal [10] was 1.24 and the Median Current Range [10] was 15.9 pA. The Median Noise of the Signal [10] was 1.19, the Median S2N [10] was 13.3 and the Percentage of complement slipping forwards [10] was 0.6%. It also gave a Standard Deviation of S2N [10] of 1.12, a Standard Deviation of the Current Range [10] of 1.83 pA and a Standard Deviation of the Noise of the Signal [10] of 0.22. For the same protein, the Average Signal to Noise (S2N) [11] was 10.6, the Mean Current Range [11] was 14.7 pA and the Mean Noise of the Signal [11] was 1.4. The Median Current Range [11] was 14.6 pA, the Median Noise of the Signal [11] was 1.22 and the Standard Deviation of the Current Range [11] was 1.88. For the same protein, the Standard Deviation of the Noise of the Signal [11] was 0.45 and the “slips forward per kilobase” value [12] was “less than 5 slips forward per kilobase”.
